Where a chain is given by its changes, count along the chain named. Numbers in names are those of the source.
B1: PBP4, native, purified (enzyme, Escherichia coli, UniProt P24228 21-477, looked up)
chain: ANVDEYITQLPAGANLALMVQKVGASAPAIDYHSQQMALPASTQKVITALAALIQLGPDFRFTTTLETKGNVENGVLKGDLVARFGADPTLKRQDIRNMVATLKKSGVNQIDGNVLIDTSIFASHDKAPGWPWNDMTQCFSAPPAAAIVDRNCFSVSLYSAPKPGDMAFIRVASYYPVTMFSQVRTLPRGSAEAQYCELDVVPGDLNRFTLTGCLPQRSEPLPLAFAVQDGASYAGAILKDELKQAGITWSGTLLRQTQVNEPGTVVASKQSAPLHDLLKIMLKKSDNMIADTVFRMIGHARFNVPGTWRAGSDAVRQILRQQAGVDIGNTIIADGSGLSRHNLIAPATMMQVLQYIAQHDNELNFISMLPLAGYDGSLQYRAGLHQAGVDGKVSAKTGSLQGVYNLAGFITTASGQRMAFVQYLSGYAVEPADQRNRRIPLVRFESRLYKDIYQNN
modifications: where used as the labelled protein in MST: NT647 RED-NHS dye on amines
notes: PBP4 (DD-endopeptidase) of E. coli, 'native PBP4' purified after Kishida et al (2006); Untagged ('native'); source: E. coli BL21 (λDE3), purified (HiTrap Q, hydroxyapatite, Superdex 200)
B2: MepS(C68A), catalytically inactive MepS (enzyme, Escherichia coli, UniProt P0AFV4 27-188, looked up)
chain: CSANNTAKNMHPETRAVGSETSSLQASQDEFENLVRNVDVKSRIMDQYADWKGVRYRLGGSTKKGIDASGFVQRTFREQFGLELPRSTYEQQEMGKSVSRSNLRTGDLVLFRAGSTGRHVGIYIGNNQFVHASTSSGVIISSMNEPYWKKRYNEARRVLSRS
notes: Peptidoglycan endopeptidase MepS of E. coli with C68A; the results call it MepS; source: E. coli BL21 (λDE3), purified (HisTrap HP, Superdex 200)
B3: MepS (enzyme, Escherichia coli, UniProt P0AFV4 27-188, looked up)
chain: B2 chain with A68C
modifications: where used as fl-MepS in MST: NT647 RED-NHS dye on amines
notes: Peptidoglycan endopeptidase MepS of E. coli, from pET21b-MepS-His (Singh et al, 2012); Construct from Singh et al, 2012; The methods list only MepS(C68A) as an unlabelled MST ligand; wild-type MepS is the labelled protein; also called fl-MepS (fluorescently labelled); MepS-His; source: E. coli BL21 (λDE3), purified (HisTrap HP, Superdex 200)
B4: PBP7, purified (enzyme, Escherichia coli, UniProt P0AFI5 26-310, looked up)
chain: KTAAATTASQPEIASGSAMIVDLNTNKVIYSNHPDLVRPIASISKLMTAMVVLDARLPLDEKLKVDISQTPEMKGVYSRVRLNSEISRKDMLLLALMSSENRAAASLAHHYPGGYKAFIKAMNAKAKSLGMNNTRFVEPTGLSVHNVSTARDLTKLLIASKQYPLIGQLSTTREDMATFSNPTYTLPFRNTNHLVYRDNWNIQLTKTGFTNAAGHCLVMRTVINNKPVALVVMDAFGKYTHFADASRLRTWIETGKVMPVPAAALSYKKQKAAQMAAAGQTAQND
modifications: where used as the labelled protein in MST: NT647 RED-NHS dye on amines
notes: PBP7 (DD-endopeptidase) of E. coli; source: E. coli BL21 (λDE3), purified (HisTrap HP, Superdex 200)
B5: LpoA, purified (natural protein, Escherichia coli, UniProt P45464 27-678, looked up)
chain: CGTHTPDQSTAYMQGTAQADSAFYLQQMQQSSDDTRINWQLLAIRALVKEGKTGQAVELFNQLPQELNDAQRREKTLLAVEIKLAQKDFAGAQNLLAKITPADLEQNQQARYWQAKIDASQGRPSIDLLRALIAQEPLLGAKEKQQNIDATWQALSSMTQEQANTLVINADENILQGWLDLQRVWFDNRNDPDMMKAGIADWQKRYPNNPGAKMLPTQLVNVKAFKPASTNKIALLLPLNGQAAVFGRTIQQGFEAAKNIGTQPVAAQVAAAPAADVAEQPQPQTVDGVASPAQASVSDLTGEQPAAQPVPVSAPATSTAAVSAPANPSAELKIYDTSSQPLSQILSQVQQDGASIVVGPLLKNNVEELLKSNTPLNVLALNQPENIENRVNICYFALSPEDEARDAARHIRDQGKQAPLVLIPRSSLGDRVANAFAQEWQKLGGGTVLQQKFGSTSELRAGVNGGSGIALTGSPITLRATTDSGMTTNNPTLQTTPTDDQFTNNGGRVDAVYIVATPGEIAFIKPMIAMRNGSQSGATLYASSRSAQGTAGPDFRLEMEGLQYSEIPMLAGGNLPLMQQALSAVNNDYSLARMYAMGVDAWSLANHFSQMRQVQGFEINGNTGSLTANPDCVINRNLSWLQYQQGQVVPVS
modifications: where used as the labelled protein in MST: NT647 RED-Maleimide dye on cysteines
notes: called LpoA^sol in the TPase methods; also called LpoA^sol; fl-LpoA; source: purified as described previously in Jean et al (2014)

Key:
Conditions in all cases: both partners purified
LpoA, purified = target: B5; assay: MST; titration: NT647-labelled protein against a two-fold serial dilution (16 steps) of unlabelled ligand; 25 mM HEPES/NaOH, 150 mM NaCl, 0.05% Triton X-100, pH 7.5; Monolith NT.115; apparent constants; for NlpI with itself: dimer to monomers
PBP1A, purified = target: T1, PBP1A, purified (Escherichia coli, UniProt P02918 1-850, NT647 RED-NHS dye on amines (PBP1A was the labelled protein in all MST assays)); assay: as above
T1 construct: Bifunctional peptidoglycan synthase PBP1A of E. coli; also called fl-PBP1A (fluorescently labelled); source: purified as described previously in Born et al (2006)
T1 sequence (looked up): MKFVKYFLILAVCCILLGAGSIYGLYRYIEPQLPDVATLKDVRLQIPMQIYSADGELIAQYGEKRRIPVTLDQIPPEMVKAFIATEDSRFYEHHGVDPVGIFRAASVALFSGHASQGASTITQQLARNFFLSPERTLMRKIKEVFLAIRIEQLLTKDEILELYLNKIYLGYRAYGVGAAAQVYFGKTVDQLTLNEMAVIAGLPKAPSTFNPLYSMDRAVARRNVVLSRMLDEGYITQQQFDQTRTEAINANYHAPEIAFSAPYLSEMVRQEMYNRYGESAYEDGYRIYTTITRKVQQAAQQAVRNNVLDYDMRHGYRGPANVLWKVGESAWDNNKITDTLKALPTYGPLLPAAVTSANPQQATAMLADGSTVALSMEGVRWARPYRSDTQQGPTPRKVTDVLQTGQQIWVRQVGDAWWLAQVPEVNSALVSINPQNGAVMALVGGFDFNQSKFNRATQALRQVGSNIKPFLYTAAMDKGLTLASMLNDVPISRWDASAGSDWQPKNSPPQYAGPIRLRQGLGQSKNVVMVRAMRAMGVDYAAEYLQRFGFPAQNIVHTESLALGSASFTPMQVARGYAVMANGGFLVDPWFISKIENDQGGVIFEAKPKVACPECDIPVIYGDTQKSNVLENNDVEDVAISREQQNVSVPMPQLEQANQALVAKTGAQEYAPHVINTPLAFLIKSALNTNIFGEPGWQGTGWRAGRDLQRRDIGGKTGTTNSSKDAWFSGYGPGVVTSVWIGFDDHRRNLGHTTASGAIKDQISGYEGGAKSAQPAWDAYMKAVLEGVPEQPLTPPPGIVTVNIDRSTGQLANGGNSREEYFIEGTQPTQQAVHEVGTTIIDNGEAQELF

[1] = target: T2, NlpI, soluble version lacking its membrane anchor (Escherichia coli, UniProt P0AFB1 20-294, where used as fl-NlpI in MST: NT647 RED-NHS dye on amines); assay: as above
T2 construct: Outer membrane lipoprotein NlpI of E. coli, soluble version lacking its membrane anchor; Homodimer by AUC; also called fl-NlpI (fluorescently labelled); His-NlpI; source: E. coli BL21 (λDE3), purified (HisTrap HP, Superdex 200)

PBP4, native, purified = target: B1; assay: MST + pull-down; endopeptidases tested against each other, 'a combination of MST and Ni2+-NTA pull-down assays'; all combinations of MepM, MepS, PBP4, PBP7
[2] = target: T3, pre-formed NlpI-PBP4 complex (Escherichia coli, UniProt P0AFB1 20-294; P24228 21-477); assay: MST; fixed ligand concentration assay: labelled MepS, LpoA or PBP1A with fixed unlabelled NlpI, PBP4, PBP7 or pre-formed complexes (NlpI 3 μM with 30 μM PBP4 or PBP7 for fl-MepS and fl-LpoA; PBP4 0.5 μM with NlpI 1 μM for fl-PBP1A); FNorm, or raw fluorescence for LpoA
T3 construct: NlpI of E. coli, soluble version lacking its membrane anchor, as the chain of m1; PBP4 of E. coli, native, as the chain of m5; NlpI 3 μM with excess PBP4 30 μM for assays with labelled MepS or LpoA; PBP4 0.5 μM with NlpI 1 μM for assays with labelled PBP1A; also called PBP4‐NlpI complex; PBP4‐NlpI; source: pre-formed from purified NlpI and purified PBP4, on ice for 10 min
T3 sequence (P0AFB1 20-294, one chain of several): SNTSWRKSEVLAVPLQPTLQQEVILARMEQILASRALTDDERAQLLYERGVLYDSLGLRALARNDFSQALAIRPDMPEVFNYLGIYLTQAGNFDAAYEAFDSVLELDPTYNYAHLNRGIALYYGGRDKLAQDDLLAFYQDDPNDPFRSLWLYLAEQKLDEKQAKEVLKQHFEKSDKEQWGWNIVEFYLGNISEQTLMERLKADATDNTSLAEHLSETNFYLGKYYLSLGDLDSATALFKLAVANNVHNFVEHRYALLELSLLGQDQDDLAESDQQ

T2 sequence (P0AFB1 20-294): as the sequence (P0AFB1 20-294, one chain of several) above

Binder | Kd (LpoA, purified) | Kd (PBP1A, purified) | other results
B1 | 315 nM | 106 nM | –
B2 | – | 91 nM | –
B3 | – | – | Kd [1]: 145 nM
B4 | 217 nM | 101 nM | binding result (PBP4, native, purified): binds; EC50 [1]: 422 nM
B5 | – | – | binding result [2]: binds

Reference: PMC7049810, “Outer membrane lipoprotein NlpI scaffolds peptidoglycan hydrolases within multi‐enzyme complexes in Escherichia coli” (The EMBO Journal, 2020)
